The DeepSol protein solubility set

test: soluble on expression in E. coli; label from the status in PepcDB or PDB records

| Sequence | soluble on expression in E. coli |
| --- | --- |
| MHVTLVEINVHEDKVDEFIEVFRQNHLGSVQEEGNLRFDVLQDPEVNSRFYIYEAYKDEDAVAFHKTTPHYKTCVAKLESLMTGPRKKRLFNGLMP | soluble |
| MSLTSAPCPFRVNRIDLRVLPMRTRFPFRYGIASLVALPHLFVTVELEVNGQSVIGRTSEGLPPKWFTKDPGTPNELEVAGMLAVIQNAVRLATLHGREPVTWYPLVRQLAAEQKLWASRHDHPPLLWNLGISLMERALLDALCQAWQEPLHAVLRGPALGIRWSELHPSLADDAVPPFLADPPASQLALRHTIGLADPLTAADIPSGEEVNDGLPHTLDDCIRAYGLRYFKIKLSGNLEADRHRLTSVASVIRQHASPDFSATLDGNENFQDLTAFREWFEALNSDPGLKDFMPHVLWIEQPLHRDSALNPELFDAFRNWPEAPRLIIDESDGESGALQTALELGYSGGSHKNCKGILKGLANAATLHAFRAAHPERDFILSGEDLANVGPIPLTQDLAMQALLGIPHVERNGHHYFRGLSMYPDGIGVSAATLAAHPDLYHQLPDGLATLNIREGFIAIDSVNQAPFGTPVAPPVDQLPTVKEWILQGGLGALEGEGHHHHHH | soluble |
| MGSDKIHHHHHHMKQKTIHIENLSIGYLGKTDVKVVADRINAGINCGELTCLLGANGVGKSTLLRTLSAFQPKLGGKIEIVGKEIDAYTDKELSTVISVVLTEKCDIRNMTVHELVGLGRSPYTDFWGTLRGEDKEVVERSIALVKIQNLAHRMVHTLSDGERQKVMIAKALAQETPVIFLDEPTAFLDFPSKVEMMQLLHRLSRQTNKTIFLSTHDLELALQIADKIWLMDKMNGVTIGTPEDLSLSGKLSSFFARKGIVFDLETGLFRVDNEYTSQIRLVGHGQKYAMVRKALQRNGILANRTVESDTYIETGDLKDGNGFILHPQEGEAVTLNSIEELLERLQAGSAERAV | not soluble |
| SQQVDKIKASYPLFLDQDYKDMLAKKRDGFEEKYPQDKIDEVFQWTTTKEYQELNFQREALTVNPAKACQPLGAVLCALGFEKTMPYVHGSQGCVAYFRSYFNRHFREPVSCVSDSMTEDAAVFGGQQNMKDGLQNCKATYKPDMIAVSTTCMAEVIGDDLNAFINNSKKEGFIPDEFPVPFAHTPSFVGSHVTGWDNMFEGIARYFTLKSMDDKVVGSNKKINIVPGFETYLGNFRVIKRMLSEMGVGYSLLSDPEEVLDTPADGQFRMYAGGTTQEEMKDAPNALNTVLLQPWHLEKTKKFVEGTWKHEVPKLNIPMGLDWTDEFLMKVSEISGQPIPASLTKERGRLVDMMTDSHTWLHGKRFALWGDPDFVMGLVKFLLELGCEPVHILCHNGNKRWKKAVDAILAASPYGKNATVYIGKDLWHLRSLVFTDKPDFMIGNSYGKFIQRDTLHKGKEFEVPLIRIGFPIFDRHHLHRSTTLGYEGAMQILTTLVNSILERLDEETRGMQATDYNHDLVR | soluble |
| AIACHTQVGGSMQVPEPRRPFTCSSENNVTNSFFEEAYSASFRSKLYNMVEEIEQERAKYCNSANLSYMDAFGVEKESIEEDYNKEEDRDSLCSVDIADNSETSNRSSEDLLCDNCSKSLMFLNNVFKWNDLLFCNLDCYTSAILKNQKGADVKHRVACSLSPTWHKDCVHSVQD | soluble |
| MGSDKIHHHHHHMLMKGVTLRGLEVFEALAKSGSVAQAADITGLSQPAVSQQLRNLEKALGSDLVDHGRRPMVLTSAGRSFLSRTQAILSELRLAQSELTVMDLSHLPALSIGLIDDFDNDLTPRLATILADSLTQCRFKMVTASSHDIHRAMAEKDLHIGVAASTGELRTGVTEYPLVEEPFILVAPRGCITDPDDVGNQLNHLPLLRYARDQLISQQIESHLSRNKMEFDDRFEIGSHLALMAMVARRIGWAITTPLGYMRAVRFHEDIDAYALPFAGFSRRISLFAQSDWPDTVPLEVAGTVRRLTQSQMITPAINRLPWLAGQLRVIEE | not soluble |
| MSLYKQTSIFDAKFDKNRPLADRMRPRTLDEFVGQEHILGKGKALRELIEKDSITSMILWGPPGVGKTTLAMIIANMTNSKFVNFSAVLSGIKEIKEIMAQAERDAMYGQRTVVFIDEIHRFNKAQQDAFLPHVEKGNIILIGATTENPSFEVNSALLSRSKVFMMKPLDVKDIMIILKRALKDEERGLGLYNVEIDEEKLEKIALFSNGDARVALNTLEMAVMAANVVNGKRVVTDEILSDVMQKKALLYDKAGEEHYNLISAFHKSLRNSDWDAALYWMARMLEAGEDPLYIARRMIRFASEDVGLADPQALSVAIAAYEASHYIGMPECSVNLAQAAVYLALAPKSNALYVAYNRVKKDAEETFAEPVPMHLRNAPTKLMKELGYGEGYKYAHDFEEKVTDMECLPENLKGRRYYIPTDSGFEKKLKERMEEILKLKGEGHHHHHH | soluble |
| MNNGEGEVMDLRDIDLNLLVVFNQLLLDRSVSTAGEKLGLTQPAVSNSLKRLRTALNDDLFLRTSKGMEPTPYALHLAEPVIYALNTLQTALTTRDSFDPFASTRTFNLAMTDIGEMYFMPPLMEALAQRAPHIQISTLRPNAGNLSEDMESGAVDLALGLLPELQTGFFQRRLFRHRYVCMFRKDHPSAKSPMSLKQFSELEHVGVVALNTGHGEVDGLLERAGIKRRMRLVVPHFIAIGPILHSTDLIATVPERFAVRCEVPFGLTTSPHPAKLPDIAINLFWHAKYNRDPGNMWLRQLFVELFSEAHHHHHH | soluble |
| MWFFNKNLKVLAPCDGTIITLDEVEDEVFKERMLGDGFAINPKSNDFHAPVSGKLVTAFPTKHAFGIQTKSGVEILLHIGLDTVSLDGNGFESFVTQDQEVNAGDKLVTVDLKSVAKKVPSIKSPIIFTNNGGKTLEIVKMGEVKQGDVVAILK | soluble |
| MGLKLDLTWFDKSTEDFKGEEYSKDFGDDGSVMESLGVPFKDNVNNGCFDVIAEWVPLLQPYFNHQIDISDNEYFVSFDYRDGDW | soluble |
| MSTKRKIVVSSDSDDDMPFTQEKQKKAATPAKKRTKPVVLTDDDEEEENAPQKKTAPKRSRKQEKEESDITSDEDELVRGTDEKKKRKGGKKELPVGQKTLDYMFKPSSSSSKRDDPKKKVEKTLVNPADFFKNSPAPSASKLPKVAPKTVEKPKTPAKKPVEISPSTKENTKTKKVSDDEFVDSDDSFDTFTPITVKKKTPEKRKETPKKKELPSVKKEFPKKQSIPVKKEKETPQKKALSVKKDPPKVTSESSSSSQVSTSSVVFQPKPSGPPPALSWVDKYKPKRMGELVGQNGDKSPINKLLEWIKDWAKHNLGEGAKIKKPKPAPWMSSQDGTSFKAALLSGSPGVGKTTCAYMACQQLGLQLVEMNASDVRSKKHLEAKIGELSGSHQIEQFFGAKKCAPQDNQKVHHILIMDEVDGMSGNEDRAGISELIQIIKESKIPIICICNDRQHPKIRTLANYCYDLRFPKPRVETIRSRMMTICSQEKMKIGKEELDEIIELSGHDVRQTIYNLQMRSKGVGAKINQKDMAVDAFSAARRLLDSRTTLMEKQEMFFTDYGIMPLFVQDNYLNMKNEKHSPIQAIRGIRKAADFISLGDLIDRQIRGGGSWKLLNEQSMISAALPAIATGGHLKAMIQFPSWLGKNSTAGKRKRLLQQLVQHTHLKVSAGTHSFATDYAPMLRQKITKPLLEHEADGIPDVISTMTEYDLIKDDTEALTEIVAWPGKIDPASKILSKVKASLTRTLNKTGRMLPYSMDSVSKGKKRGVNSIGIEMDEEGNLVEKFEDEDGESDNEDNEEKTTDVVIKVRTGGGAGASKSARGGRGGGRARGGRGSKK | not soluble |
| MSDTQQVPAIVILGQGALDTARRVQARYPGALVHGLAGRVEADRSYTDFGDTLRELYCADRPIVALCAAGIVIRSLAPLLQRKGAEPPVLALAEDGSAVVPLLGGLAGVNRLAREIGEVLAVAPAITTSGELRFGTCVLNPPAGYVLADLEQGKRFVADLLGGQPVRVEGAADWLDAARLPRDPEAALAIHVTPSARAPRAEELLIHPRCVLAALEPADAAADAVRQALVDAGLAAAALGGLLADSARMADPRLQAAADALGVPLRFLPQADPAARLRQALPAAEQVGDRLAVAAAPLAMDRIGQRRGRLTVIGLGPGCAELMVPAARRALDEAEDILGYQTYVDMAGPFRAGQVLHGSDNREELQRARHAFELAATGRAVVLVSSGDPGVFAMAAAVLEALHGAGEPAWDAVELRIFPGVSAALATAARAGAPLGHDFCVLSLSDNLKPWEVIERRLDLAGAADLAMAFYNPISRARPWQLGRALEIVARHRSPQTLVVLGRDIGRPGERLLRTTLGELRAEQVDMRTLVIIGSSTTRSFPRADGEAWVYTPRWYPSE | not soluble |
| SGTQALLVEERARLERLLGARLEAAADQALARLVEANPQPVHLICDLTHRLLACSPARAAQFGVPLGELLDRSLWPYCSEEILRQEATLEELGWRELLAPPALEFASGANASAIVPIRRSRCRWTRMTLSDGRAVRLVETL | not soluble |
